Data as given in the domain aggregation screens of Martell et al. (2025).

Assay: soluble fraction after stress (log2 fold change); higher = more stays soluble; pooled small domains, quantitative proteomics
Conditions: stress: 75 degC
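Further: 20 min heating vs room temperature control held 20 min.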

Going from “HMENMSFGTKLYTWLYGKLVGSDEIGNKYYTNINDPSDLNAKRWVIFNGEIEASKIPPHWHAWLHKSIDK” to “HMENMTLGQRIQALRKQHGLSQEGLGERLGVSRQAISRWEMDGAVPEVDKLIAMARLFGVSLNQLLGVE”, the “soluble fraction (log2)” value rises from -0.918 to -0.193.

Going from “HMENNIPANIKALIISYVNQNYPGAVIHSIERNSNGTYDVEIYYNNREYDLLFDAQGNFISGNVDDQ” to “HMENNIRLSVPDTESGQRIDSYLAEQIPGLTRSAVQNLLAEQAVTIAGKAVKKNYKLLGGEDILVQLPEVR”, the “soluble fraction (log2)” value rises from -0.0333 to 0.217.

“HMENPPISVVIPPSFRGQRIDKALGSLIGDYSRSKIQQWLQSGLVQSAGEPLLPKYTVLGNEQILIAVPS” and “HMENQGEDMRQQVKALVNADKTNITKLATATGYSRSTISMYLAGNYKGDVEAVERRLEEYMKTQG” are within 0.2 log units of each other in “soluble fraction (log2)” value: -0.13 for the first, -0.0512 for the second.

“HMENSYSVEDLALKAAISVDTIRYYQGLGLISPPQKNGRRAIYGNDHISRLEEIKKLAFEGFSLRQISLL” and “HMENTIPSVIGRTLSDGVFLLESYGYVKGNVSEEFSEMPIGVIIRQFPGAGSAAEAGTRVDLVVSKGEEIV” are within 0.2 log units of each other in “soluble fraction (log2)” value: 0.111 for the first, 0.124 for the second.

Going from “HMENVALYIRLKSMASVYDDVHGYNIEWIKSMIGLSIDIEKLRTVLEDVSWITKVEEDVYSFSKNAKPFE” to “HMENVQLRNFAIKATEAGIIKLSSDQRTFMWASNQKKLMTVPFDEHPYSAMAQFFKTDEGLAVFKSIEKKL”, the “soluble fraction (log2)” value rises from -4.31 to -1.47.

Going from “HMEPADALVAALVARGVSPSTARITVKQYPATRIQPQLEVFDYLVAQKDPKVSRNPPGFLLSAIRGEYA” to “HMEPAPELTPREQQVLARIALGMTDKAIAEELGVSHQTVRNHVARIYQKIKVHSRSQAVVWAREKGI”, the “soluble fraction (log2)” value falls from -0.718 to -1.47.

“HMEPDEESVRLKEEILSRIDYWHTTMPYMGTRKLAAKLRTEGYAVGRKLVRTYMREMGIHAVYP” and “HMEPELSVDMKPLDGLLLAIKKELQAAQMYTRLARASADAEQKMVFEQLANMEKGHKARLEDIYT” are within 0.2 log units of each other in “soluble fraction (log2)” value: -0.103 for the first, -0.079 for the second.

“HMEPESTMIEISETLTNERLDRYLATKLPNVSRGGIQRLLREGNILVNGKKAKPTQHPVAGQKIEITWPNP” and “HMEPEYIGELEKRIKKLKTHTYSSIDRLMKSISKKYKITTQVLHDDFKNKHNEIPDEWVKQF” are within 0.2 log units of each other in “soluble fraction (log2)” value: -0.0291 for the first, -0.126 for the second.

“HMEPKIKQIVPNVVNYPVEDAKNVLVNSGLIVQIRGQGNIVYDQVPKGGAEVTRGTTVILDLNPPPGA” and “HMEPKQIEVPNLVGISSAAARQTLSALGLHAVVKDSIWSETERIDTVLEQNPAGGALIKPEGTVYLRVSR” are within 0.2 log units of each other in “soluble fraction (log2)” value: -0.0576 for the first, -0.0959 for the second.

Compared with “HMEPLIRTLEEQIAEKIKNYRKGTRVYDAEHVDRWISQLPEEERMVVLTETNRLLEQNYVDQAKLME”, “HMEPMLEIFDAKIDLADVLAVESGLVRLRGGAEVTSPRVDVDAGARLELDSGARLNVERLSY” is higher in “soluble fraction (log2)” value: -0.0452 for the first, 0.155 for the second.

Compared with “HMEPMTDQQILEGFAEFKRQNPDLMNRPATQAIVNLTLPGGTPISFRSGAGAAALNQYLESIGMRAGP”, “HMEPPAPAPDIPYPSRVTVRREVDGWPHYYGTWTRTPPVLGYEGIWLVGVSLDGKVQFVPVDDVTIA” is lower in “soluble fraction (log2)” value: 0.0601 for the first, -1.17 for the second.

First: HMEPREEFTFADLRANGLNGTAAAAGRRAALGAALGIGYGNAKQFLRRLNHYGVTRSEWEAALADLDE
Second: HMEPSERYKALQSLLPDYAKRLKKKGVTRHQLFLEYRLTHPDGYARSRFGTYFQAYLALSHP
The “soluble fraction (log2)” value of the first is higher: -0.752 for the first, -2.32 for the second.

Compared with “HMEPTLVVARDKDAKSPLVAKLMKELGVDAAPRVIVDDSVIGGAKLSHNHTEIDATYKTALINLYQAIT”, “HMEPVFSDPARQTLYQEVMELPAKYRVPLYLYYYEGYKVDEVGELLGLNASTVQTRLARARAKLKIQL” is lower in “soluble fraction (log2)” value: 0.19 for the first, -0.489 for the second.

Compared with “HMEQETVTVPDLVGKDVVAAQAELHEMGLSGKPDGTGTTVVSQFPVAGARVLKHTNVILYTED”, “HMEQFRENIVRIYMEIDDYENGAKFLEMGNNRDASFYELAGDFYKYFGENELANENYDLAISA” is lower in “soluble fraction (log2)” value: 0.296 for the first, -0.629 for the second.

“HMEQIPEEYKKIYSLITDIPININDIAKKSLLELREVSSKLTMLELDGKVVKLPGNMYIRGDL” and “HMEQKELAPLVPQEDGSVKLTNLAGYSMREVAAALEGGNLSLIPIGSGTSWKQDPAPGTVLQPGNTVTVYF” are within 0.2 log units of each other in “soluble fraction (log2)” value: -0.195 for the first, -0.297 for the second.

Going from “HMEQPLSLKLANNAFSRFWGNANPAEKDTQPNNSDIAKWVIEQSGGKITQTMADKIAQIIRPEWAA” to “HMEQSGDELKTWVDQAIAAYPEKVKEYQQGKKGLLALFIGEVMKRSKGTADPKKVNQLVTEALS”, the “soluble fraction (log2)” value falls from 0.372 to -0.164.

Compared with “HMEQTMNDMLKLVDLLPQNQQDIVRMRFYENMSFKEIAESNQISINTALGRMRYAILNLRKYAAERNL”, “HMEQVLDEEIIKSAVQKVIKDNPSAVSDYKAGKKTAFQFLIGKAMAELQGKGHPGKISELLEKE” is higher in “soluble fraction (log2)” value: -2.59 for the first, 0.474 for the second.

Going from “HMEQVQQIPIEELFPFKEHPFKVLDDEAMQRTVESVAQYGVLAPLIARPRPEGGYEIISGHRRQHAAELYR” to “HMEQWVSIEVEPGIRLDVALTEATQKSRSFIQNLIAEQRVLVNGQPKKANYKVRPGDHVELNYPEPT”, the “soluble fraction (log2)” value falls from -0.0469 to -0.29.

Compared with “HMEREKTYLMPDLIGRKAERVVPRLQASGFKVEDIRHVYYPGLEKGVIVRQSPPGGYPIQKRNLINLEVS”, “HMERLKKYLDDVRTFLPGTNPKKVDEILREIESHVLERAEREHGEVNDNAVAMSIKEYGSPEEVAARYYEG” is higher in “soluble fraction (log2)” value: -0.581 for the first, 0.809 for the second.

Going from “HMERLSNQVYAILKEMIADYRFNPGARINVEQIAKEVGASRTPVWEAVHRLVQEGLLENIPNRGVFML” to “HMERNAEDFAAKYQEIYQDMFRFALYTLKNRQEAEDVVSETVLDAWKGIEGLKNESAFSAWMFRILVNK”, the “soluble fraction (log2)” value rises from -1.45 to 0.126.

“HMESADEESNALMYDGLLAMRGKRYEVALEFFDALVKHDPDFAEGWNKRATVLYLLGRYERSIADIKQVLA” and “HMESAEQTGEELAARVNVLQTVSQALARELGREAAVEELADKMKMTVDEVKDIMKMAMDAMSM” are within 0.2 log units of each other in “soluble fraction (log2)” value: 0.239 for the first, 0.294 for the second.

Compared with “HMESAESRVDLIGMIGEAITDLRPAGTAQFGEERIDVVSESEWITEGSTVKVVSAEGYRHVVRVME”, “HMESENANVNRAMLTGIASMHAGQLETALNKFNEVIQLAPDFAEGWNKRATIFYLMKKFDRSVNDIAQTLK” is higher in “soluble fraction (log2)” value: -0.358 for the first, 0.0648 for the second.

Going from “HMESFGVAIKRLREAQGWTRADFLRQLGKTGYYMHATTLKRIEEGEQIAKVHEAVIISRLFGVTVEEMG” to “HMESGFEAVREVARHGSFANAAKALGVSGPAVSRQVKSLEERLGLVFFHRTTRMVTLTEAGQQLVDTLD”, the “soluble fraction (log2)” value rises from -3.1 to 0.0837.

Going from “HMESGNLIFTNAPIADVVNAIETRYGKKLQASNQTSDLQFTGIFKNTDEFSTVVKTIEIALGLQFEV” to “HMESIEAGTFELDNKTSIDISEDEANLLNKMFEELTETNSKDMYGVMVADEAGFNEILEFAKENL”, the “soluble fraction (log2)” value rises from -1.67 to 0.00321.

Compared with “HMESNWLTYAKRIQSIADTGMTFAVDDFDKERYQELADISSKMLADLSNIPIGRIENLLGPLGQ”, “HMESPVNTLPEDQRAWYKALPPELSTKTAVEAGAGVGVSERTVKRLLSNQTFFINLQRGNYRKRH” is higher in “soluble fraction (log2)” value: -1.11 for the first, -0.119 for the second.

First: HMESRMTYLQKTKLATENLDAKLIDHQQWVAEVLGEDYRGVYSDEYLRRAAKVFAIFVNNLDD
Second: HMESRRVTLLLPYDKAGIADTLRREAAVLSLEYGEDGVTVEAVVKPELWGLVREYVQNDNPK
The “soluble fraction (log2)” value of the first is lower: -2.53 for the first, -0.135 for the second.

Compared with “HMESVTETFLTNLINRYIADKAGYIISYPSEYRIEVLYHGGQVLDYENLRKSINTYIPAHIGYKLVTI”, “HMESYDSEIKEVLDLAGKGRWEEAQTKADALREMAPNNSLVERLHGWVLQAAHQRREQALENDIRE” is higher in “soluble fraction (log2)” value: 0.176 for the first, 0.432 for the second.

Going from “HMESYTEEMLEKMSVSKLRTIARELQVDNMTREQIRFGKKTELIQNILEFTGREIENMQLYDK” to “HMESYWVVLRPMAAGTQIGANDLGYRSVALGAAAKNYLAASTNPIGSITRRRLVAGELLQGSSLTDDARA”, the “soluble fraction (log2)” value falls from -0.0481 to -0.653.

Going from “HMETADREILLREIREIINERVDYNKDITDDEMKELVMNTVFERSRQQYMSIQDKQEIIQAIFNSMR” to “HMETAESLLRRLIMLEDPAMQNAMYVLAVMLERGKQLVERAAKPHESGGILRVYEHKKSGDTFVVLDPR”, the “soluble fraction (log2)” value falls from 0.029 to -0.764.

Going from “HMETDGGDLTPRERDVLSLIGRGLRNAEAASALGLSEHTIAGHIKSVYSKLGISTRAEAALLASRLGL” to “HMETGGLAQEAERELALLQEQIAHHEALYRKGTPEISDGAFDELFDRYQELADSLGVPADERIDRA”, the “soluble fraction (log2)” value rises from -0.499 to 0.155.

First: HMETIHEMVNRLSSEGFIKNEDGIWYLRDRRGDGTKWLKNPFFESTGEKDAFALIDHLKVNDELLSKLRK
Second: HMETINERVNSIIEREGHTVATFAKKIGVPWTTIKNIVSGRNAPSYDIMVKIINAVDWVDANYLVMG
The “soluble fraction (log2)” value of the first is higher: -0.621 for the first, -2.59 for the second.

Compared with “HMETKIKFQIQTLDELNIRKVADWDAKAITTVKKGQILDVVDTVAAKNGSTPMYRLESGLYITASPKYVKK”, “HMETKPTELMLDVHKLRIGMFVYLDLGWMDHPFPLNRFKISTNAQIEQIKGLRLKQVKVMTALSDPASLL” is lower in “soluble fraction (log2)” value: -1.16 for the first, -4.91 for the second.

“HMETKVIVPKVTGMNSKSAINYLSARGLKYKAVPADSGKSFHVVDQYPKSGTKVSPHSTVYLYS” and “HMETLKEVPNLKGQQQEVAKQLLINAGLGVGKINIIEDSTIADGEVVTQSILPNTKVKKDTYVGFTVNKAP” are within 0.2 log units of each other in “soluble fraction (log2)” value: 0.114 for the first, 0.0288 for the second.

Compared with “HMETLKLRDSGKEVQSLQELLQRQGLSAPMNGIFDEATKSSVIAFQKANGLDADGIVGYKSWETLFTAG”, “HMETMSGTVKWFNTQKGYGFITGDDGAEYFAHQTQIKMDGFRTLDAGDIVEFDVRSEEKGLAAVNIVP” is higher in “soluble fraction (log2)” value: 0.0141 for the first, 0.781 for the second.

First: HMETPDLTQLNPILDEYRGQKGAVIPVLQKAQKIYGFLPPEVLRRIAAGMRVPLSKIYGVATFYSQFY
Second: HMETQAGELQDAIRDAIAALPPRTREVFLMSRERNLRYGEIAEALGISVKAVEANMSRALRQLREKLSPFL
The “soluble fraction (log2)” value of the first is higher: 0.134 for the first, -1.26 for the second.

First: HMETVMYLRQIKRPQGIYLAIQESYYDSSKKQSRTRTIESIGYLDNLRKEYEDPIAFFSQKAAAMTSEKKK
Second: HMETVQTGTVKVSNSLNVRSGAGTNYSVLGSLSNGAKVEIVGTSGSWYKIKYGSGYGYVSKDYVTVS
The “soluble fraction (log2)” value of the first is lower: -1.55 for the first, -0.0122 for the second.

“HMETVSFNPDIAVIPDYRHVVILGETTKTIANKYDIPVDILKAANPGLGNNVTKGDRLRVPDKTKLQ” and “HMETYHIQMKGDPSKGIVGFSQLDMVIDKIKRLETEKGIAPYELEVLDGDTMEKYSGEEFLTMHE” are within 0.2 log units of each other in “soluble fraction (log2)” value: 0.00398 for the first, -0.0165 for the second.

Compared with “HMETYSGVERAAILVMYLERTLAKALLDHMNDEEVRRVGMAMASIDRVEGPDIERIVGDFVRELYEVS”, “HMETYTVPEVLGLTPEQAAQLPEVKDIFTLDVKEEGDFSDKPVGTIVRQSPTEGEHRKGDNLVIEVWLSV” is higher in “soluble fraction (log2)” value: -0.642 for the first, 0.166 for the second.

With “HMEVADAAQRKILQALQVQPLTVEQLSQELRTDTGDLLVSLSMMEITGLIRREAGNTFLAVFAPK” the “soluble fraction (log2)” value was -1.66.
